Patent publication US20160024219A1 (Sanofi, published 2016)
Positions count from the first letter of the chain named. “And” between values parts separate entries of the source, which are not always exact repeats. Equal entries are not always repeated. Values belong to the binder of their own block, whether it stands above or below them.

Legend:
[1] = target: T1, CD52 peptide #741; experiment: BIACORE (SPR), CD52 peptide #741 chip, preliminary constant; antibody at week 0 (before incubation)
T1 construct: also called CD52 peptide #741 chip
Experimental: (§1) The proteins (85 μg) were diluted in PBS, pH 7.2, to 0.4 mg/ml, and incubated at 45° C. for 4 weeks. Their binding affinity to CD52 peptide was measured on BIACORE™.

[2] = target: T1, CD52 peptide #741; experiment: BIACORE (SPR), CD52 peptide #741 chip; antibody after 2 weeks at 45C, pH 7.2 in PBS
Experimental: as §1

[3] = target: T1, CD52 peptide #741; experiment: BIACORE (SPR), CD52 peptide #741 chip; antibody after 4 weeks at 45C, pH 7.2 in PBS
Experimental: as §1

[4] = target: T1, CD52 peptide #741; experiment: BIACORE (SPR), CD52 peptide #741 chip, preliminary constant; antibody after 2 weeks at 45C, pH 7.2 in PBS
Experimental: as §1

[5] = target: T1, CD52 peptide #741; experiment: BIACORE (SPR), CD52 peptide #741 chip; week 0, reference of the normalization
Experimental: as §1

[6] = target: T1, CD52 peptide #741; experiment: BIACORE (SPR), CD52 peptide #741 chip, preliminary constant; antibody after 4 weeks at 45C, pH 7.2 in PBS
Experimental: as §1

[7] = target: T1, CD52 peptide #741; experiment: BIACORE (SPR), CD52 peptide #741 chip, apparent KD; antibody after 4 weeks at 37C, 3 component buffer pH 7.5
Text: (§2) Aliquots were taken at Week 2 and Week 4 (T2 and T4) to assess their affinity to CD52 peptide by BIACORE™.

[8] = target: T1, CD52 peptide #741; experiment: BIACORE (SPR), CD52 peptide #741 chip, apparent KD; antibody after 2 weeks at 45C, 3 component buffer (graph title: 45C pH7.4)
Text: as §2

[9] = target: T1, CD52 peptide #741; experiment: BIACORE (SPR), CD52 peptide #741 chip, apparent KD; antibody after 2 weeks at 37C, 3 component buffer pH 7.5
Text: as §2

[10] = target: T2, CD52 peptide mimotope (CGQNDTSQTSSPSAD); experiment: BIACORE (SPR), CD52 peptide, purified antibody; concentrations used for fit 7.5nM - 0.2nM
T2 construct: Immobilized at a low level on a CM5 chip via thiol chemistry using the N-terminal Cys; also called CD52 peptide chip
T2 peptide: CGQNDTSQTSSPSAD

[11] = target: T2, CD52 peptide mimotope (CGQNDTSQTSSPSAD); experiment: BIACORE, CD52 peptide on CM5 chip; antibody from HEK293
Experimental: (§3) Several concentrations of anti-CD52 antibody made in HBS-EP running buffer (1 to 20 nM) were injected over the surface to monitor the binding. Kinetic analysis was performed using Scrubber2 software.

[12] = target: T2, CD52 peptide mimotope (CGQNDTSQTSSPSAD); experiment: BIACORE, CD52 peptide on CM5 chip; antibody from CHO; CHO-produced Ab26
Experimental: as §3

[13] = target: T1, CD52 peptide #741; experiment: BIACORE (SPR), CD52 peptide #741 chip, apparent KD; table 'after 37C incubation', T0, 3 component buffer pH 7.5
Text: as §2

[14] = target: T2, CD52 peptide mimotope (CGQNDTSQTSSPSAD); experiment: BIACORE (SPR), CD52 peptide, antibody purified from CHO cells; inset table
Experimental: as §3

[15] = target: T2, CD52 peptide mimotope (CGQNDTSQTSSPSAD); experiment: BIACORE (SPR), CD52 peptide, antibody purified from CHO cells; inset table, column ka; the sheet prints no unit, unit from Table 5 of the text
Experimental: as §3

[16] = target: T2, CD52 peptide mimotope (CGQNDTSQTSSPSAD); experiment: BIACORE (SPR), CD52 peptide, purified antibody; concentrations used for fit 240nM - 1.9nM
[17] = target: T2, CD52 peptide mimotope (CGQNDTSQTSSPSAD); experiment: BIACORE (SPR), CD52 peptide, antibody purified from CHO cells; inset table, column kd; the sheet prints no unit, unit from Table 5 of the text
Experimental: as §3

[18] = target: T2, CD52 peptide mimotope (CGQNDTSQTSSPSAD); experiment: BIACORE, CD52 peptide on CM5 chip
Experimental: as §3

[19] = target: T2, CD52 peptide mimotope (CGQNDTSQTSSPSAD); experiment: BIACORE, CD52 peptide on CM5 chip; antibody from CHO; CHO-produced Ab1; higher concentrations, up to 1900 nM
Experimental: as §3

[20] = target: T2, CD52 peptide mimotope (CGQNDTSQTSSPSAD); experiment: BIACORE (SPR), CD52 peptide, purified antibody; concentrations used for fit 240nM - 1.9nM; sheet's note to the asterisk: for more accurate KD, a higher concentration range should be used
[21] = target: T2, CD52 peptide mimotope (CGQNDTSQTSSPSAD); experiment: BIACORE, CD52 peptide on CM5 chip; antibody from HEK293; HEK293-produced Ab1; higher concentrations, up to 1900 nM
Experimental: as §3

[22] = target: T2, CD52 peptide mimotope (CGQNDTSQTSSPSAD); experiment: BIACORE (SPR), CD52 peptide, purified antibody; concentrations used for fit 240nM - 0.4nM
[23] = target: T2, CD52 peptide mimotope (CGQNDTSQTSSPSAD); experiment: BIACORE (SPR), CD52 peptide, purified antibody; concentrations used for fit 240nM - 0.4nM; sheet's note to the asterisk: for more accurate KD, a higher concentration range should be used

Kd [1]: 4.12 nM | %T0 (affinity relative to T0) [2]: 24.9% | %T0 (affinity relative to T0) [3]: 46.5% | Kd [4]: 16.5 nM | %T0 (affinity relative to T0) [5]: 100% | Kd [6]: 8.85 nM
B1: Ab11 (antibody, human IgG1, kappa, V domains shown)
VH: EVQLVESGGGLVQPGGSLRLSCAASGFPFSNYWMNWVRQAPGKGLEWVGQIRLKSNNYATHYAESVKGRFTISRDDSKNSLYLQMNSLKTEDTAVYYCTPIDYWGQGTTVTVSS
VL: DIVMTQTPLSLSVTPGQPASISCKSSQSLLYSNDKTYLNWVLQKPGQSPQRLIYLVSKLDSGVPDRFSGSGSGTDFTLKISRVEAEDVGVYYCVQGSHFHTFGQGTKLEIKR

Kd [1]: 2.44 nM | Kd [6]: 187 nM
B2: Ab22 (antibody, human IgG1, kappa, V domains shown)
VH: B1 VH
VL: B1 VL with D34S

Kd [1]: 3 nM | Kd [7]: 17.4 nM and 18.3 nM | Kd [8]: 28 nM | Kd [9]: 10 nM and 8.9 nM | Kd [10]: 2.4 nM and 2.8 nM | Kd [11]: 1.7 nM and 2.2 nM | Kd [4]: 13.4 nM | Kd [12]: 2.6 nM | Kd [13]: 4.3 nM and 4.2 nM | Kd [14]: 2.61 nM | Kd [6]: 25.4 nM
B3: Ab26 (antibody, human IgG1, kappa, V domains shown)
VH: B1 VH
VL: B1 VL with D34G
notes: Humanized anti-human CD52 monoclonal antibody; made in HEK293 and in CHO cells; also called CTL; CTL1

Kd [1]: 2.77 nM | Kd [4]: 7.17 nM
B4: Ab16 (antibody, human IgG1, kappa, V domains shown)
VH: B1 VH
VL: B1 VL with D34K

Kd [1]: 3.49 nM | Kd [4]: 6.8 nM
B5: Ab20 (antibody, human IgG1, kappa, V domains shown)
VH: B1 VH
VL: B1 VL with D34Q

Kd [1]: 2.05 nM | Kd [6]: 4.15 nM
B6: Ab21 (antibody, human IgG1, kappa, V domains shown)
VH: B1 VH
VL: B1 VL with D34R

Kd [1]: 3.5 nM | Kd [4]: 8.97 nM | Kd [6]: 33.3 nM
B7: Ab14 (antibody, human IgG1, kappa, V domains shown)
VH: B1 VH
VL: B1 VL with D34H

kon [15]: 306000 M⁻¹ s⁻¹ | koff [16]: 0.421 s⁻¹ | kon [16]: 1.1e+06 M⁻¹ s⁻¹ | koff [17]: 0.383 s⁻¹ | fold reduction in affinity compared to Ab26 [18]: > 400 fold | Kd [19]: 1250 nM | koff [19]: 0.383 s⁻¹ | kon [19]: 300000 M⁻¹ s⁻¹ | Kd [14]: 1250 nM | Kd [20]: 366 nM | Kd [21]: 1480 nM | koff [21]: 0.58 s⁻¹ | kon [21]: 400000 M⁻¹ s⁻¹
B8: Ab1 (antibody, human IgG1, kappa, V domains shown)
VH: B1 VH
VL: B1 VL with N33D, D34G
notes: made in HEK293 and in CHO cells

Kd [22]: 39.8 nM | koff [22]: 0.045 s⁻¹ | kon [22]: 1.1e+06 M⁻¹ s⁻¹
B9: Ab12 (antibody, human IgG1, kappa, V domains shown)
VH: B1 VH
VL: B1 VL with D34E

Kd [1]: 5.15 nM | Kd [7]: 11.3 nM | %T0 (affinity relative to T0) [2]: 30.5% | Kd [9]: 10.5 nM | Kd [10]: 5.6 nM | koff [10]: 0.019 s⁻¹ | kon [10]: 3.4e+06 M⁻¹ s⁻¹ | %T0 (affinity relative to T0) [3]: 29.8% | Kd [4]: 16.9 nM | Kd [13]: 7 nM | %T0 (affinity relative to T0) [5]: 100% | Kd [6]: 17.2 nM
B10: Ab24 (antibody, human IgG1, kappa, V domains shown)
VH: B1 VH
VL: B1 VL with D34V

koff [16]: 0.284 s⁻¹ | kon [16]: 1.3e+06 M⁻¹ s⁻¹ | Kd [20]: 222 nM
B11: Ab4 (antibody, human IgG1, kappa, V domains shown)
VH: B1 VH
VL: B1 VL with N33Q, D34G
notes: made in HEK293 cells

Kd [1]: 5.63 nM | Kd [10]: 5 nM | Kd [6]: 144 nM
B12: Ab10 (antibody, human IgG1, kappa, V domains shown)
VH: B1 VH
VL: B1 VL with D34A

Kd [23]: 111 nM | koff [22]: 0.073 s⁻¹ | kon [22]: 700000 M⁻¹ s⁻¹
B13: Ab25 (antibody, human IgG1, kappa, V domains shown)
VH: B1 VH
VL: B1 VL with D34Y

Kd [22]: 65.8 nM | koff [22]: 0.198 s⁻¹ | kon [22]: 3.1e+06 M⁻¹ s⁻¹
B14: Ab3 (antibody, human IgG1, kappa, V domains shown)
VH: B1 VH
VL: B1 VL with N33K, D34G
notes: made in HEK293 cells
